From US20210115421 (published 2021)

Experiments:
LbCas12a-K595Y [1] = target: T1, LbCas12a-K595Y (Lachnospiraceae bacterium ND2006, K595Y); test: cleavage_in_vitro; PAM ACCC; NEB 2.1, 37C; wt TTTV benchmark 9.2
LbCas12a-K121R [2] = target: T2, LbCas12a-K121R (Lachnospiraceae bacterium ND2006, K121R); test: cleavage_in_vitro; PAM CCTG; NEB 2.1, 37C
LbCas12a-T152R [3] = target: T3, LbCas12a-T152R (Lachnospiraceae bacterium ND2006, T152R); test: cleavage_in_vitro; PAM CCTG; NEB 2.1, 37C
LbCas12a-K538W [4] = target: T4, LbCas12a-K538W (Lachnospiraceae bacterium ND2006, K538W); test: cleavage_in_vitro; PAM TATA; NEB 2.1, 37C
LbCas12a-G532H [5] = target: T5, LbCas12a-G532H (Lachnospiraceae bacterium ND2006, G532H); test: cleavage_in_vitro; PAM CTTC; NEB 2.1, 37C
LbCas12a-T152R [6] = target: T3, LbCas12a-T152R; test: cleavage_in_vitro; PAM CTTC; NEB 2.1, 37C
LbCas12a-T152R [7] = target: T3, LbCas12a-T152R; test: cleavage_in_vitro; PAM GCCC; NEB 2.1, 37C
LbCas12a-D535N [8] = target: T6, LbCas12a-D535N (Lachnospiraceae bacterium ND2006, D535N); test: cleavage_in_vitro; PAM TTGC; NEB 2.1, 37C
LbCas12a-K595W [9] = target: T7, LbCas12a-K595W (Lachnospiraceae bacterium ND2006, K595W); test: cleavage_in_vitro; PAM ACGG; NEB 2.1, 37C
LbCas12a-K538W [10] = target: T4, LbCas12a-K538W; test: cleavage_in_vitro; PAM TTTC; NEB 2.1, 37C
LbCas12a-D535N [11] = target: T6, LbCas12a-D535N; test: cleavage_in_vitro; PAM TTTC; NEB 2.1, 37C
LbCas12a-D156Q [12] = target: T8, LbCas12a-D156Q (Lachnospiraceae bacterium ND2006, D156Q); test: cleavage_in_vitro; PAM CCTA; NEB 2.1, 37C
LbCas12a-K595Y [13] = target: T1, LbCas12a-K595Y; test: cleavage_in_vitro; PAM GCGC; NEB 2.1, 37C
LbCas12a-K595Y [14] = target: T1, LbCas12a-K595Y; test: cleavage_in_vitro; PAM TTCG; NEB 2.1, 37C
LbCas12a-K121R [15] = target: T2, LbCas12a-K121R; test: cleavage_in_vitro; PAM TTCT; NEB 2.1, 37C
LbCas12a-E159K [16] = target: T9, LbCas12a-E159K (Lachnospiraceae bacterium ND2006, E159K); test: cleavage_in_vitro; PAM TTCT; NEB 2.1, 37C
LbCas12a-K538W [17] = target: T4, LbCas12a-K538W; test: cleavage_in_vitro; PAM TATC; NEB 2.1, 37C
LbCas12a-K595W [18] = target: T7, LbCas12a-K595W; test: cleavage_in_vitro; PAM CCCC; NEB 2.1, 37C
LbCas12a-E159K [19] = target: T9, LbCas12a-E159K; test: cleavage_in_vitro; PAM CCCC; NEB 2.1, 37C
LbCas12a-D122H = LbCas12a-D122H (Lachnospiraceae bacterium ND2006, D122H); test: cleavage_in_vitro; PAM TCCC; NEB 2.1, 37C
LbCas12a-G532H [20] = target: T5, LbCas12a-G532H; test: cleavage_in_vitro; PAM TTCA; NEB 2.1, 37C
LbCas12a-D156Q [21] = target: T8, LbCas12a-D156Q; test: cleavage_in_vitro; PAM GTTC; NEB 2.1, 37C

B1: PAMDA protospacer 1 crRNA ; protospacer 1 with ACCC PAM (ssRNA ; dsDNA)
RNA: AAUUUCUACUAAGUGUAGAUGGAAUCCCUUCUGCAGCACCUGG
DNA 1: ACCCGGAATCCCTTCTGCAGCACCTGG
DNA 2: CCAGGTGCTGCAGAAGGGATTCCGGGT
With B1 the activity (LbCas12a-K595Y [1]) was 18.7 fold depletion.

B2: PAMDA protospacer 1 crRNA ; protospacer 1 with CCTG PAM (ssRNA ; dsDNA)
RNA: B1 RNA
DNA 1: CCTGGGAATCCCTTCTGCAGCACCTGG
DNA 2: CCAGGTGCTGCAGAAGGGATTCCCAGG
For B2, the activity (LbCas12a-K121R [2]) was 13 fold depletion and the activity (LbCas12a-T152R [3]) was 14.8 fold depletion.

B3: PAMDA protospacer 1 crRNA ; protospacer 1 with TATA PAM (ssRNA ; dsDNA)
RNA: B1 RNA
DNA 1: TATAGGAATCCCTTCTGCAGCACCTGG
DNA 2: CCAGGTGCTGCAGAAGGGATTCCTATA
For B3, the activity (LbCas12a-K538W [4]) was 10.4 fold depletion.

B4: PAMDA protospacer 1 crRNA ; protospacer 1 with CTTC PAM (ssRNA ; dsDNA)
RNA: B1 RNA
DNA 1: CTTCGGAATCCCTTCTGCAGCACCTGG
DNA 2: CCAGGTGCTGCAGAAGGGATTCCGAAG
With B4 the activity (LbCas12a-G532H [5]) was 15.1 fold depletion and the activity (LbCas12a-T152R [6]) was 16.1 fold depletion.

B5: PAMDA protospacer 1 crRNA ; protospacer 1 with GCCC PAM (ssRNA ; dsDNA)
RNA: B1 RNA
DNA 1: GCCCGGAATCCCTTCTGCAGCACCTGG
DNA 2: CCAGGTGCTGCAGAAGGGATTCCGGGC
B5 showed an activity (LbCas12a-T152R [7]) of 13 fold depletion.

B6: PAMDA protospacer 1 crRNA ; protospacer 1 with TTGC PAM (ssRNA ; dsDNA)
RNA: B1 RNA
DNA 1: TTGCGGAATCCCTTCTGCAGCACCTGG
DNA 2: CCAGGTGCTGCAGAAGGGATTCCGCAA
Binder B6 has an activity (LbCas12a-D535N [8]) of 10.9 fold depletion.

B7: PAMDA protospacer 1 crRNA ; protospacer 1 with ACGG PAM (ssRNA ; dsDNA)
RNA: B1 RNA
DNA 1: ACGGGGAATCCCTTCTGCAGCACCTGG
DNA 2: CCAGGTGCTGCAGAAGGGATTCCCCGT
With B7 the activity (LbCas12a-K595W [9]) was 11.5 fold depletion.

B8: PAMDA protospacer 1 crRNA ; protospacer 1 with TTTC PAM (ssRNA ; dsDNA)
RNA: B1 RNA
DNA 1: TTTCGGAATCCCTTCTGCAGCACCTGG
DNA 2: CCAGGTGCTGCAGAAGGGATTCCGAAA
With B8 the activity (LbCas12a-K538W [10]) was 11.7 fold depletion and the activity (LbCas12a-D535N [11]) was 10.5 fold depletion.

B9: PAMDA protospacer 1 crRNA ; protospacer 1 with CCTA PAM (ssRNA ; dsDNA)
RNA: B1 RNA
DNA 1: CCTAGGAATCCCTTCTGCAGCACCTGG
DNA 2: CCAGGTGCTGCAGAAGGGATTCCTAGG
Work on B9 yielded an activity (LbCas12a-D156Q [12]) of 13.4 fold depletion.

B10: PAMDA protospacer 1 crRNA ; protospacer 1 with GCGC PAM (ssRNA ; dsDNA)
RNA: B1 RNA
DNA 1: GCGCGGAATCCCTTCTGCAGCACCTGG
DNA 2: CCAGGTGCTGCAGAAGGGATTCCGCGC
Binder B10 has an activity (LbCas12a-K595Y [13]) of 17.5 fold depletion.

B11: PAMDA protospacer 1 crRNA ; protospacer 1 with TTCG PAM (ssRNA ; dsDNA)
RNA: B1 RNA
DNA 1: TTCGGGAATCCCTTCTGCAGCACCTGG
DNA 2: CCAGGTGCTGCAGAAGGGATTCCCGAA
B11 showed an activity (LbCas12a-K595Y [14]) of 17.8 fold depletion.

B12: PAMDA protospacer 1 crRNA ; protospacer 1 with TTCT PAM (ssRNA ; dsDNA)
RNA: B1 RNA
DNA 1: TTCTGGAATCCCTTCTGCAGCACCTGG
DNA 2: CCAGGTGCTGCAGAAGGGATTCCAGAA
B12 showed an activity (LbCas12a-K121R [15]) of 14.4 fold depletion and an activity (LbCas12a-E159K [16]) of 12.7 fold depletion.

B13: PAMDA protospacer 1 crRNA ; protospacer 1 with TATC PAM (ssRNA ; dsDNA)
RNA: B1 RNA
DNA 1: TATCGGAATCCCTTCTGCAGCACCTGG
DNA 2: CCAGGTGCTGCAGAAGGGATTCCGATA
B13 gave an activity (LbCas12a-K538W [17]) of 9.66 fold depletion.

B14: PAMDA protospacer 1 crRNA ; protospacer 1 with CCCC PAM (ssRNA ; dsDNA)
RNA: B1 RNA
DNA 1: CCCCGGAATCCCTTCTGCAGCACCTGG
DNA 2: CCAGGTGCTGCAGAAGGGATTCCGGGG
B14 gave an activity (LbCas12a-K595W [18]) of 11.9 fold depletion and an activity (LbCas12a-E159K [19]) of 12.3 fold depletion.

B15: PAMDA protospacer 1 crRNA ; protospacer 1 with TCCC PAM (ssRNA ; dsDNA)
RNA: B1 RNA
DNA 1: TCCCGGAATCCCTTCTGCAGCACCTGG
DNA 2: CCAGGTGCTGCAGAAGGGATTCCGGGA
Binder B15 has an activity (LbCas12a-D122H) of 18.8 fold depletion.

B16: PAMDA protospacer 1 crRNA ; protospacer 1 with TTCA PAM (ssRNA ; dsDNA)
RNA: B1 RNA
DNA 1: TTCAGGAATCCCTTCTGCAGCACCTGG
DNA 2: CCAGGTGCTGCAGAAGGGATTCCTGAA
Work on B16 yielded an activity (LbCas12a-G532H [20]) of 16.2 fold depletion.

B17: PAMDA protospacer 1 crRNA ; protospacer 1 with GTTC PAM (ssRNA ; dsDNA)
RNA: B1 RNA
DNA 1: GTTCGGAATCCCTTCTGCAGCACCTGG
DNA 2: CCAGGTGCTGCAGAAGGGATTCCGAAC
In the case of B17, the activity (LbCas12a-D156Q [21]) is reported as 15.6 fold depletion.
